Measured values reported in patent US7790682B1, “Engineered human acidic fibroblast growth factors and associated methods” (The Florida State University Research Foundation, Inc., priority 2003, dated 2010).

B1: SYM6/ΔΔ: SYM6 FGF-1 mutant plus both Δ104-106 and Δ120-122 deletion mutations, SEQ ID NO: 1 (protein)
chain: FNLPPGNYKKPKLLYCSNGGHFLRILPDGTVDGTRDRSDQHIQFQLSAESVGEVYIKSTETGQYLAIDTDGLVYGSQTPNEECLFLERLEENHYNTYISKKHGWFLGIKKNGSVKGTHYGQKAILFLPLPVSSD
modifications: Human FGF-1 mutant SYM6DD
B2: SYM5/Δ120-122: SYM5 FGF-1 mutant plus Arg119→Gly/ΔGly120/ΔPro121/ΔArg122, SEQ ID NO: 2 (protein)
chain: FNLPPGNYKKPKLLYCSNGGHFLRILPDGTVDGTRDRSDQHIQFQLSAESVGEVYIKSTETGQYLAMDTDGLVYGSQTPNEECLFLERLEENHYNTYISKKHAEKNWFLGIKKNGSVKGTHYGQKAILFLPLPVSSD
modifications: Human FGF-1 mutant SYM5D120-122
B3: SYM5: FGF-1 core mutant Leu44→Phe/Leu73→Val/Val109→Leu/Leu111→Ile/Cys117→Val (protein, UniProt P05230 16-155, looked up, variant L44F L73V V109L L111I C117V)
Fibroblast growth factor 1: FNLPPGNYKKPKLLYCSNGGHFLRILPDGTVDGTRDRSDQHIQFQLSAESVGEVYIKSTETGQYLAMDTDGLVYGSQTPNEECLFLERLEENHYNTYISKKHAEKNWFLGIKKNGSVKRGPRTHYGQKAILFLPLPVSSD
B4: SYM5/Δ104-106: SYM5 FGF-1 mutant plus Ala103→Gly/ΔGlu104/ΔLys105/ΔAsn106 (protein, UniProt P05230 16-155, looked up, variant L44F L73V V109L L111I C117V A103G del104-106)
Fibroblast growth factor 1: FNLPPGNYKKPKLLYCSNGGHFLRILPDGTVDGTRDRSDQHIQFQLSAESVGEVYIKSTETGQYLAMDTDGLVYGSQTPNEECLFLERLEENHYNTYISKKHGWFLGIKKNGSVKRGPRTHYGQKAILFLPLPVSSD

Legend:
[1] = Folding and unfolding kinetics (Chevron plot, stopped-flow CD, GuHCl); assay type: physicochemical; details: for kf: folding rate constant extrapolated to 0M GuHCl; for kf / ku: global Chevron fit; for ΔΔG‡-D / ΔΔG‡-N: in reference to WT*; for ΔΔG‡-D: positive value = decrease in folding activation barrier; for ΔΔG‡-N: positive value = decrease in unfolding activation barrier; for mf: slope of ln(kf) vs GuHCl; for mu: slope of ln(ku) vs GuHCl; for ku: unfolding rate constant extrapolated to 0M GuHCl
Experimental: Due to signal-to-noise considerations, relatively high protein concentrations (>100 μM) of FGF-1 were required for kinetic studies monitored by CD. At these concentrations protein precipitation occurred in ADA buffer. Therefore, a different buffering system was chosen for the kinetic studies to permit higher protein concentrations without precipitation. Protein samples were dialyzed against 50 mM sodium phosphate, 100 mM NaCl, 10 mM ammonium sulfate, 2 mM DTT, and typically 2.5, 3.0 or 3.8M GuHCl pH 7.5 overnight at 298K prior to data collection (higher concentrations of GuHCl were required to ensure complete denaturation for some stabilizing mutations).
Protein samples were degassed for 10 minutes prior to analysis. Refolding was initiated by a 1:10 dilution of protein solutions into 50 mM sodium phosphate, 100 mM NaCl, 10 mM ammonium sulfate, 2 mM DTT pH 7.5 containing either 0.1M or 0.05M increments of GuHCl up to the midpoint of denaturation. All data were collected using an Aviv model SF305 stopped flow system. Data collection times for each protein were designed to quantify the CD signal over 5 half-lives, or >96% of the total expected amplitude.
Protein samples (300 μM) were dialyzed against 50 mM sodium phosphate, 100 mM NaCl, 10 mM ammonium sulfate, 2 mM DTT pH 7.50 buffer overnight at 298K, and degassed for 10 min prior to data collection. Unfolding was initiated by 1:10 dilution of the native protein into 50 mM sodium phosphate, 100 mM NaCl, 10 mM ammonium sulfate, 2 mM DTT pH 7.5 buffer with final GuHCl concentration in the range of 1.5 to 5.5M in 0.5M increments. The unfolding process was quantified by following the change in CD signal at 227 nm, and data collection times for each protein were designed so as to monitor the CD signal over 3 to 4 half-lives, or >93% of the total expected amplitude.
Triplicate scans were collected for both folding and unfolding kinetic data at each GuHCl buffer condition. In all cases, data from at least three separate experiments were averaged. The kinetic rates and amplitudes versus denaturant concentration were calculated from the time dependent change in CD signal using a single exponential model: I(t)=Aexp(−kt)+C (3) where I(t) is the intensity of CD signal at time t, A is the corresponding amplitude, k is the observed rate constant for the reaction and C is a constant that is the asymptote of the CD signal. Folding and unfolding rate constant data were fit to a global function describing the contribution of both rate constants to the observed kinetics as a function of denaturant (“Chevron” plot): In(kobs)=In(kf0exp(mkfD)+ku0exp(mkuD)) (5) where kf0 and ku0 are the folding and unfolding rate constants, respectively, extrapolated to 0M denaturant, mkf and mku are the slopes of the linear functions relating In(kf) and In(ku), respectively, to D, the denaturant concentration. Changes in activation barriers upon mutation were calculated using a modified version of transition state theory: ΔΔG‡-D=RTIn(kf Mut/kfWT*) and ΔΔG‡-N=RTIn(ku Mut/kuWT*) (6) where kf Mut, ku Mut, kf WT* and ku WT* are the folding and unfolding rates for mutant and WT*, respectively, in water. ΔΔG‡-D, and ΔΔG‡-N are the changes in the activation barrier for folding and unfolding, respectively, between mutation and WT*. A positive value for ΔΔG‡-D or ‡‡G‡-N indicates a decrease in the associated activation barrier energy. Isothermal Titration Calorimetry.
Due to the relatively weak differential CD signal of native and denatured FGF-1, the folding kinetics study required relatively high protein concentrations (>5 mg/ml). […] Thus, the refolding rate constants were not obtainable below certain denaturant concentrations for these mutants. […] The SYM6Δ120-122 mutant is substantially destabilized relative to the WT* protein (see Table II) and presents a relatively short “folding arm” in the Chevron plot, for this reason there is greater uncertainty associated with the folding kinetics determined for this mutant. […]

NIH 3T3 fibroblasts = test: Cell proliferation (mitogenic activity) assay; assay type: cell-based; details: NIH 3T3 fibroblasts; for EC50 (effective concentration for 50% maximal stimulation): 48 hours
Experimental: NIH 3T3 fibroblasts were initially plated in Dulbecco's modified Eagle's medium (DMEM) (American Type Culture Collection, Manassas Va.) supplemented with 10% (v/v) newborn calf serum (NCS) (Sigma, St. Louis Mo.), 100 units of penicillin, 100 μg streptomycin, 0.25 μg Fungizone™ and 0.01 mg/ml gentamicin (Gibco, Carlsbad Calif.) (“serum-rich” medium) in T75 tissue culture flasks (Fisher, Pittsburgh Pa.). The cultures were incubated at 37° C. and all cell growth was performed with 5% CO2 supplementation. At approximately 80% cell confluence, the cells were washed with 5 ml cold 0.14M NaCl, 5.1 mM KCl, 0.7 mM Na2HPO4 and 24.8 mM Trizma® base, pH 7.4 (TBS) and subsequently treated with 5 ml of a 0.025% trypsin solution (Invitrogen Corp., Carlsbad Calif.). Cell synchronization was initiated by serum starvation in DMEM with 0.5% NCS, 100 units of penicillin, 100 μg streptomycin, 0.25 μg Fungizone™ and 0.01 mg/ml gentamicin (“starvation” medium). The cells were seeded in T25 tissue culture flasks (Fisher, Pittsburgh, Pa.) at a cell density of 3.0×10^4 cells/cm^2 (representing ˜20% confluence). Duplicate flasks were used for each protein concentration. Cultures were incubated for 48 hours at 37° C., the medium was then decanted and replaced with fresh medium supplemented with the appropriate concentration of FGF-1 polypeptide, and incubated for an additional 48 hours. After this incubation, the medium was decanted and the cells were washed with 1 ml cold TBS pH 7.4. 1 ml of 0.025% trypsin was then added to release the cells from the flask surface, and 2 ml of serum-rich medium were added to dilute and inhibit the trypsin. The cells were counted using a hemocytometer (Hausser Scientific Partnership, Horsham Pa.). Experiments were performed in quadruplicate and the cell densities were averaged. The relationship between the cell number and log concentration of added growth factor was fit to a sigmoidal function.
Mitogenic activity towards NIH 3T3 fibroblasts was determined for WT*, SYM5, SYM5Δ104-106, SYM5Δ120-122, and SYM6ΔΔ mutants. […] The NIH 3T3 fibroblast proliferative activity of WT* FGF-1 yielded an effective concentration for 50% maximal stimulation (EC50) of 60 ng/ml (FIG. 3).

Row | Molecule | kf [1] [s⁻¹] | ΔΔG‡-D [1] [kcal/mol] | ΔΔG‡-N [1] [kcal/mol] | mf [1] [M⁻¹] | mu [1] [M⁻¹] | ku [1] | EC50 (effective concentration for 50% maximal stimulation) (NIH 3T3 fibroblasts) [µg/mL] | folding behavior ([1]; all denaturant concentrations evaluated) | mitogenic activity in comparison to WT* (in words) (NIH 3T3 fibroblasts)
1 | WT*: Wild type (his-tagged) 140 amino acid form of human FGF-1, SEQ ID NO: 4 [reference compound] | 3.31 | 0 | 0 | -6.05 | 0.47 | 0.69 1 × 10^−3 sec^−1 | 0.06 | – | –
2 | B1 | 74.0 | 1.84 | 0.602 | -4.40 | 0.69 | 1.90 1 × 10^−3 sec^−1 | 0.00084 | single exponential folding behavior | almost two orders of magnitude more potent
3 | B2 | 7.29 | 0.468 | 0.502 | -6.44 | 0.80 | 1.60 1 × 10^−3 sec^−1 | 0.0021 | – | –
4 | B3 | 2.57 | -0.151 | -0.6 | -6.44 | 0.57 | 0.25 1 × 10^−3 sec^−1 | – | – | essentially identical results as WT*
5 | B4 | 2.00 | -0.299 | -0.0598 | -3.70 | 0.95 | 0.62 1 × 10^−3 sec^−1 | 0.115 | – | approximately two-fold less mitogenic activity
